For assay [1], the target named is T1, DHPR β1a subunit, full length (mouse, UniProt Q8R3Z5-4 1-524).
T1 construct: mouse voltage-gated calcium channel (DHPR) β1a subunit, NCBI NM_031173, full length; also called β1a-FL; full-length β1a; source: E. coli BL21, purified (Ni-agarose, ubiquitin removed, preparative electrophoresis); not shown: polyhistidine-tagged ubiquitin, N-terminal, cleaved
In words: other fluorescence titration; tryptophan fluorescence quenching: intrinsic fluorescence of the β subunit or β1a-SH3 domain in the cuvette (sub-micromolar; 50 nM β1a-FL for the AID titration) monitored while titrating the II-III loop or peptides; excitation 280 nm, emission 340 nm; corrected for dilution and intrinsic fluorescence of the titrant; nonlinear regression. The note with it: both partners purified.

Assay [2] deals with T2, DHPR β1a SH3 domain (β1a residues V101-P272) (mouse, UniProt Q8R3Z5-4 101-272).
T2 construct: mouse DHPR β1a subunit, NCBI NM_031173, residues V101-P272 (split SH3 domain with the hook region); also called β1a–SH3 Domain (Residues 101–272); β1a SH3 protein; not shown: polyhistidine-tagged ubiquitin, N-terminal, cleaved
The assay is described as above. The conditions noted are these: both partners purified.

T2 sequence (Q8R3Z5 other isoform, or with tags, fused parts or gaps): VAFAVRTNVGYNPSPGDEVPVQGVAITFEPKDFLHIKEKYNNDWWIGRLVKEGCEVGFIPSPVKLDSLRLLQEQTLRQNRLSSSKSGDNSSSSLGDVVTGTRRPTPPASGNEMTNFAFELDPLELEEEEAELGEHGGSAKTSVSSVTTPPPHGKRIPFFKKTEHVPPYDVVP
T1 sequence (Q8R3Z5 other isoform, or with tags, fused parts or gaps): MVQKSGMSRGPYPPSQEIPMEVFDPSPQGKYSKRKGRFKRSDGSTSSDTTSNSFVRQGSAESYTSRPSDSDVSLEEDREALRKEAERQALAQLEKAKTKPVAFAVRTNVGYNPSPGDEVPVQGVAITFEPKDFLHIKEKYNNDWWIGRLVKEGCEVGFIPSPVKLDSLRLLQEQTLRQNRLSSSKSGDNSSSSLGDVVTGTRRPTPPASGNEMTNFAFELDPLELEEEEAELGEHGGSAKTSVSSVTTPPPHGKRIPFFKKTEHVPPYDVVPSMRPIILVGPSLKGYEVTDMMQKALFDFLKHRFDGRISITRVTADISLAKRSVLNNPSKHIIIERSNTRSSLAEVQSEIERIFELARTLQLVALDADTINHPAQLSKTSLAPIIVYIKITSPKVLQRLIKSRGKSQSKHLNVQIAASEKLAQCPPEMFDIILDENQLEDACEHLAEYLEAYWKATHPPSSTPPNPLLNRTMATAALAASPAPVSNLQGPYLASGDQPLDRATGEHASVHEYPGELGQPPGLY

B1: α1c II–III loop C region peptide (residues 851–895) (peptide, UniProt P15381-1 851-895, looked up)
peptide: INMDDLQPNESEDKSPYPNPETTGEEDEEEPEMPVGPRPRPLSEL
notes: DHPR α1c subunit (cardiac, CaV1.2), II-III loop C region, residues 851-895 of NP_001129994.1 (cardiac); also called α1c C; cardiac II-III loop C region; source: synthetic peptide
For orientation: Kd means the equilibrium constant for the complex coming apart. Turning to B1, the Kd was found to be 3.5 ± 0.4 µM in assay [1] and 2.5 ± 0.2 µM in assay [2].

B2: DHPR α1s II-III loop (domain or fragment, UniProt P07293 666-791, looked up)
chain: EAESLTSAQKAKAEERKRRKMSRGLPDKTEEEKSVMAKKLEQKPKGEGIPTTAKLKVDEFESNVNEVKDPYPSADFPGDDEEDEPEIPVSPRPRPLAELQLKEKAVPIPEASSFFIFSPTNKVRVL
notes: DHPR α1s subunit (CaV1.1), cytoplasmic II-III loop, residues E666-L791 of NCBI X05921 (methods); the results say residues 666-790 of NP_001095190; Methods: E666-L791; results: 666-790; also called α1s DHPR II-III Loop; DHPR II-III loop; source: E. coli BL21, purified (Ni-agarose, ubiquitin removed, preparative electrophoresis); not shown: polyhistidine-tagged ubiquitin, N-terminal, cleaved
Regarding B2, the Kd in assay [1] was determined as 2.5 ± 0.4 µM; in assay [2], 2.6 ± 0.2 µM.

B3: α1s II–III loop C region peptide (residues 720–765) (peptide, UniProt P07293 720-765, looked up)
peptide: LKVDEFESNVNEVKDPYPSADFPGDDEEDEPEIPVSPRPRPLAELQ
notes: DHPR α1s subunit, II-III loop C region, residues 720-765 of NP_001095190.1 (skeletal); also called α1s C; skeletal II-III loop C region; source: synthetic peptide
In the case of B3, the Kd in assay [1] was 4.9 ± 0.6 µM; in assay [2], 3.6 ± 0.6 µM.

The values are drawn from paper PMC12650144, “Interactive Role of the DHPR β1a SH3 Domain in Skeletal Muscle Excitation–Contraction Coupling” (Biomolecules, 2025).
